Fold diff data for one molecule are collected here from patent publication US20220332804A1 (CSL INNOVATION, published 2022).

Common to all, as to assay: SPR; KD relative to WT C2;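 also: biacore SPR at 37 °C, anti-C2 mAbs captured on an anti-human IgG chip, alanine or serine C2 surface mutants tested, KD from 1:1 fit compared with wild-type C2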
For orientation: SPR reads the build-up and loss of mass on a sensor chip optically.

The target of one assay is T1, human C2 V455A (human, UniProt P06681 21-752).
T1 sequence: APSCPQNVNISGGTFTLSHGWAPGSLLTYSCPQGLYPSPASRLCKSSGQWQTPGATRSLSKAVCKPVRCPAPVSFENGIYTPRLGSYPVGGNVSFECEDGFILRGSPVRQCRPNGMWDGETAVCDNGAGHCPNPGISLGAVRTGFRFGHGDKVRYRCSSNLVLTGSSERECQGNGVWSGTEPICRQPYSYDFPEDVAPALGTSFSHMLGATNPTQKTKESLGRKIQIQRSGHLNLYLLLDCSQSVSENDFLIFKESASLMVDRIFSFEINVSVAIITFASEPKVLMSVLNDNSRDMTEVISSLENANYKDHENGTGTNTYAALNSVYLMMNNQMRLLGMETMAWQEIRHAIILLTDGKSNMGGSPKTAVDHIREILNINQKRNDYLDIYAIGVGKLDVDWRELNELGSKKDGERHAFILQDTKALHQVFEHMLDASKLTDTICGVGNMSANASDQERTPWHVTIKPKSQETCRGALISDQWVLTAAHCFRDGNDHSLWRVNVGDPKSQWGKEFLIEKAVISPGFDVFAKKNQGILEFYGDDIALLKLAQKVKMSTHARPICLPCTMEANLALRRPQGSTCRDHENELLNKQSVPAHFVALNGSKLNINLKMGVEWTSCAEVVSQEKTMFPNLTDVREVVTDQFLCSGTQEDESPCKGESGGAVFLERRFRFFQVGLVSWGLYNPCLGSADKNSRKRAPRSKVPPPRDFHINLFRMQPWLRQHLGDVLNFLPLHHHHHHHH

For a further assay, the target named is T2, human C2 D417A (human, UniProt P06681 21-752).
T2 sequence: T1 sequence with D397A, A435V

The target of a further assay is T3, human C2 I438A (human, UniProt P06681 21-752).
T3 sequence: T1 sequence with I418A, A435V

The next assay deals with T4, human C2 K244A (human, UniProt P06681 21-752).
T4 sequence: T1 sequence with K224A, A435V

Positions count from the first letter of the chain named.

B1: RF16-214 (antibody, V domains shown)
VH: EVQLLESGGGLVQPGGSLRLSCAASGFTFSWYQMMWVRQAPGKGLEWVSRIYPSGGGTAYADSVKGRFTISRDNSKNTLYLQMNSLRAEDTAVYYCARDAGYGDNWGQGTLVTVSS
VL: QSALTQPPSVSVSPGQTASITCSGDKLGEKYASWYQQKAGQSPVMVIYQDRKRPSGIPERFSGSNSGNTATLTISGTQAMDEADYYCQAWDTRAVVFGGGTKLTVLG
As for B1, the Fold diff with human C2 V455A amounted to 0 fold; in the assay with human C2 D417A it was 2 fold; with human C2 I438A it was 1 fold; with human C2 K244A, 3 fold.
